Test results as given in patent CN117836322A (PASTEUR INSTITUT, dated 2024).
“And” between values parts separate entries of the source, which are not always exact repeats. Identical values can stand only once.

Columns and labels:
[1] = target: SARS-CoV-2 Delta (δ, B.1.617.2) spike on virus (SARS-CoV-2); test: cell-based or functional assay
[2] = target: SARS-CoV-2 Omicron BA.1 spike on virus (SARS-CoV-2); test: cell-based or functional assay

| Binder | IC50 (S-融合测定) [1] [µg/mL] | IC50 (S-融合测定) [2] | IC50 (中和) [2] [µg/mL] |
| --- | --- | --- | --- |
| Cv2.1169 IgG1 (antibody, V domains shown) VH: QVQLVQSGPEVKKPGTSVKVSCKASGFTFTTSAVQWVRQARGQRLEWIGWIVVGSGNTNYAQKFQERVTITRDMSTTTAYMELSSLRSEDTAVYYCAAPYCSGGTCLDGFDIWGQGTMVTVSS VL: not shown | 0.00446 | 0.253 µg/mL and 0.212 µg/mL | ~0.25 |
| Cv2.3194 IgG1 (antibody, V domains shown) VH: EVQLVESGGGLIQPGGSLRLSCAASGITVTSNYMSWVRQAPGKGLEWVSVIYPGGSTFYADSVKGRFTISRDNSKNTLYLQMNSLRAEDTAVYYCARDLVVYGMDVWGQGTTVTVSS VL: EIVLTQSPGTLSLSPGERATLSCRASQSVSSSYLAWYQQKPGQAPRLLIYGASSRATGIPGRFSGSGSGTDFTLTISRLEPEDFAIYYCQQGVTFGGGTKVEIKR |  | 0.0242 µg/mL |  |
